Consider eight sequences from patent publication US20130326725.

What all share (test): cell_activity
The test system of data set [1] is ZFN 107832L (28535) (synthetic construct). The following applies: as pair 107832L/R (pKG7480); tomato protoplasts, 48 h; also active in yeast assay.
For data set [2], the system named is ZFN 107835L (28563) (synthetic construct). The following applies: as pair 107835L/R (pKG7482); tomato protoplasts, 48 h; also active in yeast assay.
Data set [3] relates to ZFN 107835R (28564) (synthetic construct). The following applies: as pair 107835L/R (pKG7482); tomato protoplasts, 48 h; also active in yeast assay.
In data set [4] the test system is ZFN 107832R (28536) (synthetic construct). The following applies: as pair 107832L/R (pKG7480); tomato protoplasts, 48 h; also active in yeast assay.
For data set [5], the system named is ZFN 107833L (28549) (synthetic construct). The following applies: as pair 107833L/R (pKG7481); tomato protoplasts, 48 h; also active in yeast assay.
For data set [6], the system named is ZFN 107830L (28491) (synthetic construct). The following applies: as pair 107830L/R (pKG7479); tomato protoplasts, 48 h; also active in yeast assay.
The subject of data set [7] is ZFN 107833R (28550) (synthetic construct). To be noted: as pair 107833L/R (pKG7481); tomato protoplasts, 48 h; also active in yeast assay.
Data set [8] has as its system ZFN 107830R (28492) (synthetic construct). The following applies: as pair 107830L/R (pKG7479); tomato protoplasts, 48 h; also active in yeast assay.

With “CTTGGCCCTAACCACATCAAGCATGGTAACTCCAAAGAG (double strand) [107832L target]”, the activity (% indel clones) in data set [1] worked out at 5.5. In the case of “GGCTTATTACCTTGGATGCGAAGAAGGGAAGCTCGGTGAC (double strand) [107835L target]”, the activity (% indel clones) in data set [2] is 0.7. In data set [3], “GTCACCGAGCTTCCCTTCTTCGCATCCAAGGTAATAAGCC (double strand) [107835R target]” showed an activity (% indel clones) of 0.7. Regarding “CTCTTTGGAGTTACCATGCTTGATGTGGTTAGGGCCAAG (double strand) [107832R target]”, the activity (% indel clones) in data set [4] stood at 5.5.

In data set [5], “GTTATGCCAGCATGACCACCAACTACTGGGAGATTGACCTCTGAA (double strand) [107833L target]” returned an activity (% indel clones) of 2. Regarding “CGGATCCCGATGCGAATCCACGGCGAGATACATAGGATGCT (double strand) [107830L target]”, the activity (% indel clones) in data set [6] is 4.1. In data set [7], “TTCAGAGGTCAATCTCCCAGTAGTTGGTGGTCATGCTGGCATAAC (double strand) [107833R target]” returned an activity (% indel clones) of 2. The sequence “AGCATCCTATGTATCTCGCCGTGGATTCGCATCGGGATCCG (double strand) [107830R target]” showed an activity (% indel clones) in data set [8] of 4.1.
